These results are taken from publication PMC12803514, “The RNA-binding protein HuR modulates the expression of the disease-linked CCL2 rs1024611G-rs13900T haplotype”.

In this data set the target is HuR (ELAVL1 human recombinant protein) (Homo sapiens, UniProt Q15717 1-326). The data set is described as follows: EMSA; HuR 0-150 µM as printed (25-200 µM in Methods); 20 mM HEPES pH 7.6, 3 mM MgCl2, 40 mM KCl, 5% glycerol, 2 mM DTT, 20 µg yeast tRNA, 20 U RNasin, 20 µL, on ice 10 min (plus 15 min with antibody); 5% native PAGE, 0.5x TBE. The note with it: protein: commercial. For orientation: Mobility shift assays separate free from complexed probe on a gel.
Sequence of HuR (ELAVL1 human recombinant protein) (Q15717 whole entry): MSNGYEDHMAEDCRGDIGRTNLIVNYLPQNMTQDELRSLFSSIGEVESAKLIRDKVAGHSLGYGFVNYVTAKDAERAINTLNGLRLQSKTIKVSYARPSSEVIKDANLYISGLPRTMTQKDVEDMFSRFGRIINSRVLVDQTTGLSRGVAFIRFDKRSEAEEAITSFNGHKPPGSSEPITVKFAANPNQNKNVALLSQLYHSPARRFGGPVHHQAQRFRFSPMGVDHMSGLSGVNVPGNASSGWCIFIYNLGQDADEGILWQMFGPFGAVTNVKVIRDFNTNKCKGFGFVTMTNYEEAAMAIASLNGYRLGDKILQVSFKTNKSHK

B1: rs13900T oligoribonucleotide (ssRNA)
RNA: CUUUCCCCAGACACCUUGUUUUAUUU
With B1, the binding result was “binds”.
